Key:
[1] = molecular target: T1, Fc-tagged recombinant PDGFRA monomeric fragment (human, UniProt P16234 24-528); assay: SPR
T1 chain: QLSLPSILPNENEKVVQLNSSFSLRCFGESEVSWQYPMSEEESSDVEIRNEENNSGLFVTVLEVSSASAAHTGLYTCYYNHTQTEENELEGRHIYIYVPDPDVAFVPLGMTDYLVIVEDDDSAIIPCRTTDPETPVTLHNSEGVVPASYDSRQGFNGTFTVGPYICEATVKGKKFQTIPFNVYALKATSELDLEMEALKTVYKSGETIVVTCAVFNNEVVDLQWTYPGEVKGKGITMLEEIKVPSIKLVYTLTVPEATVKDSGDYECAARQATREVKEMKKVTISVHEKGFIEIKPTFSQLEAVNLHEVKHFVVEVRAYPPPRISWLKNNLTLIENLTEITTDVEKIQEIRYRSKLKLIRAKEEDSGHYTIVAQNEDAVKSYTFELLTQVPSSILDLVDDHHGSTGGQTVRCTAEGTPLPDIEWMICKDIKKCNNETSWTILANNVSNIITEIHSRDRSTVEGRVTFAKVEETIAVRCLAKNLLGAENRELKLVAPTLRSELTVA

[2] = molecular target: T2, Fc-tagged recombinant PDGFRA monomeric fragment (human, UniProt P16234 24-528); assay: SPR; Biacore T200, CM5 chip, amine coupling, hPDGFRA immobilised, Endocan as analyte; HBS-EP (0.15 M NaCl, 3 mM EDTA, 0.005% P20, 0.01 M Hepes pH 7.4), 30 ul/min; KD = koff/kon at five concentrations; repeated with 1 and 10 ug/ml heparin without effect; settings: both partners purified
T2 construct: PDGFRA (platelet-derived growth factor receptor alpha), human, recombinant 'monomeric fragment'; also called Fc-PDGFRA monomeric fragment; Fc-tagged rPDGFRA; source: bought: R&D

B1: recombinant His-tagged Endocan (ligand, UniProt Q9NQ30 20-184, looked up)
chain: WSNNYAVDCPQHCDSSECKSSPRCKRTVLDDCGCCRVCAAGRGETCYRTVSGMDGMKCGPGLRCQPSNGEDPFGEEFGICKDCPYGTFGMDCRETCNCQSGICDRGTGKCLKFPFFQYSVTKSSNRFVSLTEHDMASGDGNIVREEVVKENAAGSPVMRKWLNPR
notes: Endocan (ESM1 gene product), recombinant; the introduction describes the mature polypeptide as 165 amino acids; also called rEndocan; His6-Endocan; source: bought: R&D
koff [1]: 0.045 s⁻¹
Kd [2]: 345 nM

— PMC11707362, “Endothelial-secreted Endocan activates PDGFRA and regulates vascularity and spatial phenotype in glioblastoma” (Nature Communications, 2025)
